Laboratory results from patent US20060110789.

Columns and labels:
[1] = molecular target: T1, (5)M3+TE (module 3 of DEBS with the N-terminal linker of module 5, fused to thioesterase), Q03132
T1 chain: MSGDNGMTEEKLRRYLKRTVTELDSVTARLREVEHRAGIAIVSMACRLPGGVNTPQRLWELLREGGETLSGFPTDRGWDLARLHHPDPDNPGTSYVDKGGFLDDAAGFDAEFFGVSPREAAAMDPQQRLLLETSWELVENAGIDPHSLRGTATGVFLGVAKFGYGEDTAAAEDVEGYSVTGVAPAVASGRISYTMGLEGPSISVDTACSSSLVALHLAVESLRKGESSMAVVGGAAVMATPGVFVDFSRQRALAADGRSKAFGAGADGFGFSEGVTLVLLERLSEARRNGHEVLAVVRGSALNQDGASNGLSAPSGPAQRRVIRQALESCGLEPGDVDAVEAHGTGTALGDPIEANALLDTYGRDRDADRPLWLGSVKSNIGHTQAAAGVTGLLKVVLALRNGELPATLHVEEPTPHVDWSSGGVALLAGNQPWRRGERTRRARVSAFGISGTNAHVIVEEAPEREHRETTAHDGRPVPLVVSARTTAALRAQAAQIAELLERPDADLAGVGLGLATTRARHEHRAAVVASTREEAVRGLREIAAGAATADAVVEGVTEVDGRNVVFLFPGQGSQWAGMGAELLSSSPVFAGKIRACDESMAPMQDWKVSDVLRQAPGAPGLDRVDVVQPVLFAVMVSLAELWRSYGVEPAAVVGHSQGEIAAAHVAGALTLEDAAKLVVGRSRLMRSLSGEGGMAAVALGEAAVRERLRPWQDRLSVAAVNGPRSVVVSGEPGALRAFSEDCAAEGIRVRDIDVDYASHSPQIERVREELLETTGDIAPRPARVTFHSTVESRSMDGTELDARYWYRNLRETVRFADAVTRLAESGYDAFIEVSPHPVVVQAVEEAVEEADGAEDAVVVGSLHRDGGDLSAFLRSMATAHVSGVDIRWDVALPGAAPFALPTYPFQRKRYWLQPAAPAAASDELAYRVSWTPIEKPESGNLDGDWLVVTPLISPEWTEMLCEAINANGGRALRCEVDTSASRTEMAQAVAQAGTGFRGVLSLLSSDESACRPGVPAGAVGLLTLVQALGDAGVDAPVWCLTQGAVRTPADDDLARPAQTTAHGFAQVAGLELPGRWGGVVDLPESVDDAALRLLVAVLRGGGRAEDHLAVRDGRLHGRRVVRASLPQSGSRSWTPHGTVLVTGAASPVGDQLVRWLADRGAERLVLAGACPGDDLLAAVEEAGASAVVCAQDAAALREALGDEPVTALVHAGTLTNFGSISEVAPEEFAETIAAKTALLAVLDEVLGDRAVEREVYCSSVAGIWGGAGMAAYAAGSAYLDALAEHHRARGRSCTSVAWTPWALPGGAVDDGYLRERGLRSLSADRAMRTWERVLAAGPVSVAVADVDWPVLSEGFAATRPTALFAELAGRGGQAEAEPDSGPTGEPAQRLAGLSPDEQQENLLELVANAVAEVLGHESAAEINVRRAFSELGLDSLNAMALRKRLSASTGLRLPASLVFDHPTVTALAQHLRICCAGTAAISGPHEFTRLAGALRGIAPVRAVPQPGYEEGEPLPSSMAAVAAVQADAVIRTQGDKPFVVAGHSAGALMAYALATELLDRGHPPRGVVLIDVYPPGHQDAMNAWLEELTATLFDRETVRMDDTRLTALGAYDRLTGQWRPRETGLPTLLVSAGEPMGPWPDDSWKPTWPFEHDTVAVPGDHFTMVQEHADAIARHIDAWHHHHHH

[2] = molecular target: T2, M3+TE (module 3 of DEBS with its own N-terminal linker, fused to thioesterase), Q03132
T2 chain: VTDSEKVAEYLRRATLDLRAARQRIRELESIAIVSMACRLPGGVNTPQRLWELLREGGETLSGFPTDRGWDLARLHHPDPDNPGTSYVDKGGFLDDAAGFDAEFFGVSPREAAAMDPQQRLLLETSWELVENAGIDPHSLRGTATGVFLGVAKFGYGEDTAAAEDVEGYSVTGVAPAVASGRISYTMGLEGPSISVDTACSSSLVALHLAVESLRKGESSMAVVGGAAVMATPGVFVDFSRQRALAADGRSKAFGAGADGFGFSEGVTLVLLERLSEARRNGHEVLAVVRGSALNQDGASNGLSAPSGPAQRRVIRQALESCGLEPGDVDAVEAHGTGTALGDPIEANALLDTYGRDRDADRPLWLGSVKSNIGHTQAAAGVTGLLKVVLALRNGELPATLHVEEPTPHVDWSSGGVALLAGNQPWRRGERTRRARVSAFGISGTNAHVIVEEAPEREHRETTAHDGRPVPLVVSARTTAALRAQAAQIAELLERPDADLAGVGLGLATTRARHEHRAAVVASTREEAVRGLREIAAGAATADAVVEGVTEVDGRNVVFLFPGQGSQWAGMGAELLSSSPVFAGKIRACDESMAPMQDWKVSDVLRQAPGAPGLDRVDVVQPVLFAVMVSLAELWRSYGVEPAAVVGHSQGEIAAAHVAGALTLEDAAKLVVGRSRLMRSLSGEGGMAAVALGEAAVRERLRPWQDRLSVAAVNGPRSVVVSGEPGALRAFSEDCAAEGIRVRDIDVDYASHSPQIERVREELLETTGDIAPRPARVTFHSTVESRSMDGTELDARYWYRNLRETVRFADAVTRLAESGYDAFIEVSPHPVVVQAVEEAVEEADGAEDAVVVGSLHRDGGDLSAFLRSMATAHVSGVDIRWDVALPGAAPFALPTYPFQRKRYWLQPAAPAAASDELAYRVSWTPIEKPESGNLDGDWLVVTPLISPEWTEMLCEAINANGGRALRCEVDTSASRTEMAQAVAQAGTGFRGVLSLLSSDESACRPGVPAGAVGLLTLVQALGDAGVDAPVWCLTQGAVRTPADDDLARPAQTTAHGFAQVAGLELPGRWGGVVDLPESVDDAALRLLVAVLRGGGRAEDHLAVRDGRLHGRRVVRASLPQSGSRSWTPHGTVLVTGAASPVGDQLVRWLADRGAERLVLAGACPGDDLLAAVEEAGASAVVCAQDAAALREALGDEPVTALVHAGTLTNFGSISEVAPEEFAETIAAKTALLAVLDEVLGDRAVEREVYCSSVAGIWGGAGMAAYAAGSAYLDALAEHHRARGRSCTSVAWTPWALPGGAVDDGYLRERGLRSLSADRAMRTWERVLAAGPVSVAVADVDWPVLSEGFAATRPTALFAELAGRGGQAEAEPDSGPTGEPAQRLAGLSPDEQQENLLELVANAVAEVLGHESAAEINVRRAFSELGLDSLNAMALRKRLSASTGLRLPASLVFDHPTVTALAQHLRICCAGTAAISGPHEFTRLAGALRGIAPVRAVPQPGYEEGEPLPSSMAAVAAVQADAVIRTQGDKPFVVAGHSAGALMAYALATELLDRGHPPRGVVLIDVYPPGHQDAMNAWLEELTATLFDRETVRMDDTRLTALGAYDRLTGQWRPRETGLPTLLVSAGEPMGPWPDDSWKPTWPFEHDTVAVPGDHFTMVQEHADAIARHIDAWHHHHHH

B1: M2 (module 2 of DEBS with its natural C-terminal linker) (protein)
chain: MSGDNGMTEEKLRRYLKRTVTELDSVTARLREVEHRAGIAIVGMACRLPGEVDSPERLWELITSGRDSAAEVPDDRGWVPDELMASDAAGTRAHGNFMAGAGDFDAAFFGISPREALAMDPQQRQALETTWEALESAGIPPETLRGSDTGVFVGMSHQGYATGRPRPEDGVDGYLLTGNTASVASGRIAYVLGLEGPALTVDTACSSSLVALHTACGSLRDGDCGLAVAGGVSVMAGPEVFTEFSRQGALSPDGRCKPFSDEADGFGLGEGSAFVVLQRLSDARREGRRVLGVVAGSAVNQDGASNGLSAPSGVAQQRVIRRAWARAGITGADVAVVEAHGTGTRLGDPVEASALLATYGKSRGSSGPVLLGSVKSNIGHAQAAAGVAGVIKVLLGLERGVVPPMLCRGERSGLIDWSSGEIELADGVREWSPAADGVRRAGVSAFGVSGTNAHVIIAEPPEPEPVPQPRRMLPATGVVPVVLSARTGAALRAQAGRLADHLAAHPGIAPADVSWTMARARQHFEERAAVLAADTAEAVHRLRAVADGAVVPGVVTGSASDGGSVFVFPGQGAQWEGMARELLPVPVFAESIAECDAVLSEVAGFSVSEVLEPRPDAPSLERVDVVQPVLFAVMVSLARLWRACGAVPSAVIGHSQGEIAAAVVAGALSLEDGMRVVARRSRAVRAVAGRGSMLSVRGGRSDVEKLLADDSWTGRLEVAAVNGPDAVVVAGDAQAAREFLEYCEGVGIRARAIPVDYASHTAHVEPVRDELVQALAGITPRRAEVPFFSTLTGDFLDGTELDAGYWYRNLRHPVEFHSAVQALTDQGYATFIEVSPHPVLASSVQETLDDAESDAAVLGTLERDAGDADRFLTALADAHTRGVAVDWEAVLGRAGLVDLPGYPFQGKRFWLLPDRTTPRDELDGWFYRVDWTEVPRSEPAALRGRWLVVVPEGHEEDGWTVEVRSALAEAGAEPEVTRGVGGLVGDCAGVVSLLALEGDGAVQTLVLVRELDAEGIDAPLWTVTFGAVDAGSPVARPDQAKLWGLGQVASLERGPRWTGLVDLPHMPDPELRGRLTAVLAGSEDQVAVRADAVRARRLSPAHVTATSEYAVPGGTILVTGGTAGLGAEVARWLAGRGAEHLALVSRRGPDTEGVGDLTAELTRLGARVSVHACDVSSREPVRELVHGLIEQGDVVRGVVHAAGLPQQVAINDMDEAAFDEVVAAKAGGAVHLDELCSDAELFLLFSSGAGVWGSARQGAYAAGNAFLDAFARHRRGRGLPATSVAWGLWAAGGMTGDEEAVSFLRERGVRAMPVPRALAALDRVLASGETAVVVTDVDWPAFAESYTAARPRPLLDRIVTTAPSERAGEPETESLRDRLAGLPRAERTAELVRLVRTSTATVLGHDDPKAVRATTPFKELGFDSLAAVRLRNLLNAATGLRLPSTLVFDHPNASAVAGFLDGTEVRGEAPSALAGLDALEGALPEVPATEREELVQRLERMLAALRPVAQAADASGTGANPSGDDLGEAGVDELLEALGRELDGD
- highest rate constant of tetraketide lactone 2 formation (mismatched linkers) [1]: in the range of 0.02-0.03 min^-1
- maximum rate constant (kcat) of tetraketide lactone 2 formation [2]: 0.0045 ± 0.00017 s⁻¹
